# Experimental data as given in the emibetuzumab library of Makowski et al. (2022).
# B1: VH:VL chains; a variant is named by its letters at X, in order (parent)
# chain 1: QVQLVQSGAEVKKPGASVKVSCKASGYTFTDYXMHWVRQAPGQGLEWMGXVNPNXXXTTYNQKFEGRVTMTTDTSTSTAYMELRSLRSDDTAVYYCARXNXLDXWGQGTTVTVSS
# chain 2: DIQMTQSPSSLSASVGDRVTITCSVSSSVSSIYLHWYQQKPGKAPKLLIYSTSNLASGVPSRFSGSGSGTDFTLTISSLQPEDFATYYCQVYSGYPLTFGGGTKVEIK
# Variants of: B1
# Experiment: yeast display scFab, FACS + sequencing
# Summary of the method: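 Non-specific binding was called from deep sequencing of sorted yeast cells displaying a heavy-chain CDR mutant scFab library. Cells labelled with anti-Myc and biotinylated ovalbumin (260 μg/mL in PBSB, 3 h, room temperature) or soluble membrane proteins (130 μg/mL, 20 min on ice) were FACS-sorted, collecting the top 25% and bottom 10% of binders from two replicates. A sequence was positive when present in ≥3 of 4 pooled positive samples and absent from all negatives, and negative under the converse rule.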
row,Variant,non-specific binding call
1,VETEGSSV,no binding
2,SEKGGSSA,no binding
3,VETRSSSV,no binding
4,VETEGAGA,no binding
5,AETKGAVA,no binding
6,VETEGDVA,no binding
7,VETEGDVY,no binding
8,VETEGDAV,no binding
9,DEKKADWA,no binding
10,VEKKDYSA,no binding
11,VETGNSSA,no binding
12,FERTSALF,binds
13,SEREADWF,no binding
14,AERRGSWS,no binding
15,VERGTYGV,no binding
16,YETGAAAA,no binding
17,FEKGSDVA,no binding
18,AETKGALD,no binding
19,VERGGDSY,no binding
20,AERRDDGA,no binding
21,YETEGDVF,no binding
22,VERGGFGS,binds

row,Variant,non-specific binding call
1,SERRDVLY,binds
2,YETTDSWV,no binding
3,FERTSVWF chain 1 L45F,binds
4,AETKGFAV,no binding
5,SETGGDVA,no binding
6,VETGGAVA,no binding
7,YERRSSAF,no binding
8,DETKGDWD,no binding
9,VETGNDVA,no binding
10,YETGNVWF,no binding
11,VEKGGSGV,no binding
12,VEKGGSGD,no binding
13,AETKGDVY,no binding
14,FERRAFGY,binds
15,VETEGDWY,no binding
16,VETEGDWD,no binding
17,DETGGDWF,no binding
18,YERTTDLS,binds
19,SETGNVWF,no binding
20,VERASAVV,no binding
21,SEKKSAGA,no binding
22,YERRGSWS,no binding

row,Variant,non-specific binding call
1,VETKGDWD,no binding
2,AEREADWV,no binding
3,SEKKDYSA,no binding
4,YETKGDWD,no binding
5,DETEGDVF,no binding
6,YERESAAV,no binding
7,AETTDSWV,no binding
8,VETEGAVY,no binding
9,VEKGGDWD,no binding
10,VEKGGDGV,no binding
11,SETGAALD,no binding
12,VETTDSWV,no binding
13,YEKGGDGA,no binding
14,YEKGGDGV,no binding
15,SETTDAGV,no binding
16,SETTDAGD,no binding
17,VEREADWF,no binding
18,VETGNSLV,no binding
19,SETTDSSA,no binding
20,VERRGSWS,no binding
21,DETGGSSD,no binding
22,YERRNDVV,no binding

row,Variant,non-specific binding call
1,VETRSDVA,no binding
2,VETGNSGA,no binding
3,SETTDDAV,no binding
4,AETKGDGV,no binding
5,AETKGDGA,no binding
6,VETGNDLV,no binding
7,YEKGGDVY,no binding
8,YEKGGDVD,no binding
9,VEKTGVGA,binds
10,YERRDVLY,binds
11,SERRSSAF,no binding
12,AETKGDWV,no binding
13,AETKGDWD,no binding
14,SEKKADWA,no binding
15,SETKGDVY,no binding
16,AETKGSLA,no binding
17,VETEGSGV,no binding
18,VETEGDGF,no binding
19,VETEGDGV,no binding
20,VETGNAVY,no binding
21,VERKGYLA,binds
22,VEKGGDVS,no binding

row,Variant,non-specific binding call
1,SETGADVA,no binding
2,SETGGFVV,no binding
3,SETGGDWV,no binding
4,SETTDDVA,no binding
5,DERRSSAF,no binding
6,VETGNDAV,no binding
7,FETGGYVY,no binding
8,AETKGAAA,no binding
9,DETRSAGA,no binding
10,SETGGAGD,no binding
11,DETGNVWF,no binding
12,DEKGGSSA,no binding
13,YETETALY,no binding
14,AETAGAAA,no binding
15,VETGNDGV,no binding
16,VETGNDGA,no binding
17,SETTDSLD,no binding
18,AETGASLS,no binding
19,VETGGAAA,no binding
20,SETKGDWD,no binding
21,SETKGDWA,no binding
